What all share (experiment): fluorescence anisotropy
What all share (conditions): Anisotropy: 45 mM Tris pH 8.0, 1 mM CoCl2, 1 mM 2-oxoglutarate, 1 nM DNA, 25 °C, added salt not stated

Series [1] relates to AlkB Y76A (Escherichia coli).
Series [2] concerns AlkB wt (Escherichia coli).
Series [3] concerns AlkB R161A (Escherichia coli).
Series [4] has as its target T1, AlkB D135A D135A (Escherichia coli) (UniProt P05050).
T1 sequence: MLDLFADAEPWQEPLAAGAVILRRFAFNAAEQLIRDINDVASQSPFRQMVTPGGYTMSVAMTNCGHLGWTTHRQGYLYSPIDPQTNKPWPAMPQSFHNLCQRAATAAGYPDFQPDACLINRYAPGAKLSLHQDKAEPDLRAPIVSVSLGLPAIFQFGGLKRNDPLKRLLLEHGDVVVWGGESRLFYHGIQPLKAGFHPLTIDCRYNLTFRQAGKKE

The subject of series [5] is AlkB T51A (Escherichia coli).
Series [6] has as its system AlkB W69A (Escherichia coli).
[7] abbreviates: 1,N6-ethenoadenine (position not given).
Where [8] appears, read: one 1-methyladenine (position not given).

From publication PMC2800194 come the findings set out here.

A word on the Kd: it is the free concentration of one partner at which half of the binding sites on the other are occupied at equilibrium, for simple one-to-one binding. For 30-mer εA, the Kd in series [1] (setting [7]) turned out to be 22 µM; in series [2] (setting [7]), 1.2 µM; in series [3] (setting [7]) it was 8 µM; in series [4] (setting [7]), 0.127 µM; in series [5] (setting [7]) it was 2.7 µM; in series [6] (setting [7]), 7.8 µM.
In the case of 30-mer undamaged, the dissociation constant (Kd) in series [1] (1 mM Co2+, 1 mM 2-OG) was 38 µM; in series [2], 16 µM; in series [3] it was 20 µM; in series [4], 4.9 µM; in series [5], 51 µM; in series [6] it was 35 µM.
For 30-mer 1-meA, the dissociation constant (Kd) in series [1] (setting [8]) came to 11 µM; in series [2] (setting [8]) it was 2 µM; in series [3] (setting [8]), 9.6 µM; in series [4] (setting [8]), 0.316 µM; in series [5] (setting [8]), 1.5 µM; in series [6] (setting [8]), 5.2 µM.
